Experimental findings from patent US20220048948A1 (REGENTS OF THE UNIVERSITY OF MINNESOTA, published 2022) are described below.

B1: Peptide 1 (control CD40-binding peptide) (peptide)
peptide: VLQWAEKGYYTMSNN
modifications: also: also used fluorescently labelled (dye and position not given here), called cyclic, no cyclisation chemistry given
notes: also called control Peptide 1

No end group written: not given here.

The first assay deals with CD40 on Rhesus macaque peripheral blood mononuclear cells / B cells (Rhesus macaque, UniProt F6SNI1 21-278). The assay can be described thus: cell-based or functional assay.
For LVNWADKAFYTTSNN (also: also made with a fluorescent label, dye and site not given here) [Peptide 5], the “MHC class II expression on B cells after activation with recombinant hCD40L, peptide at 30 µM” value stood at 50 % reduction.
On the same count and under the same terms, the result for VVQWAEKGYYTMSQN (also: also made with a fluorescent label, dye and site not given here) [Peptide 7] reads 50 % reduction; that for LLQWAERGYFMTSNN (also: also made with a fluorescent label, dye and site not given here) [Peptide 6], 50 % reduction; that for VLQWAERGFYTTSNN (also: also made with a fluorescent label, dye and site not given here) [Peptide 2], 50 % reduction.
The same measure, in the same setting: the result for VVQWAEKGFFTMSNN (also: also made with a fluorescent label, dye and site not given here) [Peptide 3] reads 50 % reduction; that for B1, 50 % reduction.
Still for that read-out and setting: the result for VLNWADKAYFTMSQN (also: also made with a fluorescent label, dye and site not given here) [Peptide 4] reads 50 % reduction.

The target of another assay is T1, FLAG-tagged rhsCD40 (Alexis) (human, UniProt P25942 21-193, limits assumed).
T1 construct: Bought reagent (Alexis); also called recombinant human CD40; human CD40; not shown: FLAG tag
T1 sequence (P25942 21-193 limits assumed): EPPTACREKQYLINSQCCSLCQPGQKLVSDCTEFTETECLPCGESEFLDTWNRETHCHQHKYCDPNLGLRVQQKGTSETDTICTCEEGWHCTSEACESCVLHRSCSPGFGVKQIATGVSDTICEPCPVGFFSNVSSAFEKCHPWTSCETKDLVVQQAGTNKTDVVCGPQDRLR
The assay can be described thus: ELISA, peptide and FLAG-tagged rhsCD40 (1 ug/ml), detected with HRP anti-FLAG antibody, TMB, OD 450 nm. Here is the method:
Binding of the identified peptides to CD40 was analyzed by ELISA. Briefly, plates were coated with […] and then incubated with identified peptides and detected using Flag-tagged rhsCD40.
In order to confirm the specificity of the peptides to interfere with CD40:CD154 interaction, the specificity of peptides 1-7 as listed in table 1 to bind to human […] by ELISA was tested. Briefly, 96 well ELISA (Nunc Immunolon) plates were coated with the peptides in carbonate buffer. The wells are washed and probed with FLAG-tagged rhsCD40 (1 μg/ml; Alexis) and developed with HRP conjugated rabbit anti-FLAG antibody. The plates were washed and the enzymatic activity was determined using 3,3′,5,5′-tetramethyl-benzidine substrate for 15 minutes and the reaction was stopped by the addition of 2 M H2SO4, and optical density was measured at 450 nm, with the correction wavelength set at 620 nm.
As for LVNWADKAFYTTSNN (also: also made with a fluorescent label, dye and site not given here) [Peptide 5], the binding result is “binds”.
On to VVQWAEKGYYTMSQN (also: also made with a fluorescent label, dye and site not given here) [Peptide 7], for which the binding result was “binds”.
On the same count and under the same terms, the result for LLQWAERGYFMTSNN (also: also made with a fluorescent label, dye and site not given here) [Peptide 6] reads “binds”; that for VLQWAERGFYTTSNN (also: also made with a fluorescent label, dye and site not given here) [Peptide 2], “binds”; that for VVQWAEKGFFTMSNN (also: also made with a fluorescent label, dye and site not given here) [Peptide 3], “binds”.
For the molecule B1, the binding result was “binds”.
On the same count and under the same terms, the result for VLNWADKAYFTMSQN (also: also made with a fluorescent label, dye and site not given here) [Peptide 4] reads “binds”.
